Experimental data from patent publication US20180371086A1.

Target: human CD3, on primary human T cells (human) (UniProt P07766)
Assay: cell-based or functional assay

Chain of human CD3, on primary human T cells (human) (P07766 23-207 limits assumed): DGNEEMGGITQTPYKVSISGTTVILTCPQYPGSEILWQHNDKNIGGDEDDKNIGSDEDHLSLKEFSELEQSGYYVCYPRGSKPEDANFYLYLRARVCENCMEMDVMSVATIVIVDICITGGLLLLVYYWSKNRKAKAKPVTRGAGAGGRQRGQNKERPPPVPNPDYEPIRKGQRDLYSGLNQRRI

Substance: PGT-121.60 (antibody)
- Ki-67 EC50; CD4 T cells; donor D1597; 7552-infected CEM cells: > 100 µg/mL
- Ki-67 EC50; CD4 T cells; donor D1597; THRO-infected CEM cells: > 100 µg/mL
- Ki-67 EC50; CD4 T cells; donor D1597; uninfected CEM cells: > 100 µg/mL
- Ki-67 EC50; CD4 T cells; donor D2256; 7552-infected CEM cells: > 100 µg/mL
- Ki-67 EC50; CD4 T cells; donor D2256; THRO-infected CEM cells: > 100 µg/mL
- Ki-67 EC50; CD4 T cells; donor D2256; uninfected CEM cells: > 100 µg/mL
- Ki-67 EC50; CD4 T cells; donor D4246; 7552-infected CEM cells: > 100 µg/mL
- Ki-67 EC50; CD4 T cells; donor D4246; THRO-infected CEM cells: > 100 µg/mL
- Ki-67 EC50; CD4 T cells; donor D4246; uninfected CEM cells: > 100 µg/mL
- Ki-67 EC50; CD4 T cells; donor D4279; 7552-infected CEM cells: > 100 µg/mL
- Ki-67 EC50; CD4 T cells; donor D4279; THRO-infected CEM cells: > 100 µg/mL
- Ki-67 EC50; CD4 T cells; donor D4279; uninfected CEM cells: > 100 µg/mL
- Ki-67 EC50; CD8 T cells; donor D1597; 7552-infected CEM cells: > 100 µg/mL
- Ki-67 EC50; CD8 T cells; donor D1597; THRO-infected CEM cells: > 100 µg/mL
- Ki-67 EC50; CD8 T cells; donor D1597; uninfected CEM cells: > 100 µg/mL
- Ki-67 EC50; CD8 T cells; donor D2256; 7552-infected CEM cells: > 100 µg/mL
- Ki-67 EC50; CD8 T cells; donor D2256; THRO-infected CEM cells: > 100 µg/mL
- Ki-67 EC50; CD8 T cells; donor D2256; uninfected CEM cells: > 100 µg/mL
- Ki-67 EC50; CD8 T cells; donor D4246; 7552-infected CEM cells: > 100 µg/mL
- Ki-67 EC50; CD8 T cells; donor D4246; THRO-infected CEM cells: > 100 µg/mL
- Ki-67 EC50; CD8 T cells; donor D4246; uninfected CEM cells: > 100 µg/mL
- Ki-67 EC50; CD8 T cells; donor D4279; 7552-infected CEM cells: > 100 µg/mL
- Ki-67 EC50; CD8 T cells; donor D4279; THRO-infected CEM cells: > 100 µg/mL
- Ki-67 EC50; CD8 T cells; donor D4279; uninfected CEM cells: > 100 µg/mL
- Ki-67 Δ Emax; CD4 T cells; donor D1597; 7552-infected CEM cells: 1%
- Ki-67 Δ Emax; CD4 T cells; donor D1597; THRO-infected CEM cells: -1%
- Ki-67 Δ Emax; CD4 T cells; donor D1597; uninfected CEM cells: 1%
- Ki-67 Δ Emax; CD4 T cells; donor D2256; 7552-infected CEM cells: 0%
- Ki-67 Δ Emax; CD4 T cells; donor D2256; THRO-infected CEM cells: -2%
- Ki-67 Δ Emax; CD4 T cells; donor D2256; uninfected CEM cells: 0%
- Ki-67 Δ Emax; CD4 T cells; donor D4246; 7552-infected CEM cells: 0%
- Ki-67 Δ Emax; CD4 T cells; donor D4246; THRO-infected CEM cells: 0%
- Ki-67 Δ Emax; CD4 T cells; donor D4246; uninfected CEM cells: 0%
- Ki-67 Δ Emax; CD4 T cells; donor D4279; 7552-infected CEM cells: -1%
- Ki-67 Δ Emax; CD4 T cells; donor D4279; THRO-infected CEM cells: 1%
- Ki-67 Δ Emax; CD4 T cells; donor D4279; uninfected CEM cells: 1%
- Ki-67 Δ Emax; CD8 T cells; donor D1597; 7552-infected CEM cells: 0%
- Ki-67 Δ Emax; CD8 T cells; donor D1597; THRO-infected CEM cells: 0%
- Ki-67 Δ Emax; CD8 T cells; donor D1597; uninfected CEM cells: 0%
- Ki-67 Δ Emax; CD8 T cells; donor D2256; 7552-infected CEM cells: 0%
- Ki-67 Δ Emax; CD8 T cells; donor D2256; THRO-infected CEM cells: 0%
- Ki-67 Δ Emax; CD8 T cells; donor D2256; uninfected CEM cells: 0%
- Ki-67 Δ Emax; CD8 T cells; donor D4246; 7552-infected CEM cells: 0%
- Ki-67 Δ Emax; CD8 T cells; donor D4246; THRO-infected CEM cells: 0%
- Ki-67 Δ Emax; CD8 T cells; donor D4246; uninfected CEM cells: 0%
- Ki-67 Δ Emax; CD8 T cells; donor D4279; 7552-infected CEM cells: 0%
- Ki-67 Δ Emax; CD8 T cells; donor D4279; THRO-infected CEM cells: 0%
- Ki-67 Δ Emax; CD8 T cells; donor D4279; uninfected CEM cells: 0%
- PD-1 EC50; CD4 T cells; donor D1597; 7552-infected CEM cells: > 100 µg/mL
- PD-1 EC50; CD4 T cells; donor D1597; THRO-infected CEM cells: > 100 µg/mL
- PD-1 EC50; CD4 T cells; donor D1597; uninfected CEM cells: > 100 µg/mL
- PD-1 EC50; CD4 T cells; donor D2256; 7552-infected CEM cells: > 100 µg/mL
- PD-1 EC50; CD4 T cells; donor D2256; THRO-infected CEM cells: > 100 µg/mL
- PD-1 EC50; CD4 T cells; donor D2256; uninfected CEM cells: > 100 µg/mL
- PD-1 EC50; CD4 T cells; donor D4246; 7552-infected CEM cells: > 100 µg/mL
- PD-1 EC50; CD4 T cells; donor D4246; THRO-infected CEM cells: > 100 µg/mL
- PD-1 EC50; CD4 T cells; donor D4246; uninfected CEM cells: > 100 µg/mL
- PD-1 EC50; CD4 T cells; donor D4279; 7552-infected CEM cells: > 100 µg/mL
- PD-1 EC50; CD4 T cells; donor D4279; THRO-infected CEM cells: > 100 µg/mL
- PD-1 EC50; CD4 T cells; donor D4279; uninfected CEM cells: > 100 µg/mL
- PD-1 EC50; CD8 T cells; donor D1597; 7552-infected CEM cells: > 100 µg/mL
- PD-1 EC50; CD8 T cells; donor D1597; THRO-infected CEM cells: > 100 µg/mL
- PD-1 EC50; CD8 T cells; donor D1597; uninfected CEM cells: > 100 µg/mL
- PD-1 EC50; CD8 T cells; donor D2256; 7552-infected CEM cells: > 100 µg/mL
- PD-1 EC50; CD8 T cells; donor D2256; THRO-infected CEM cells: > 100 µg/mL
- PD-1 EC50; CD8 T cells; donor D2256; uninfected CEM cells: > 100 µg/mL
- PD-1 EC50; CD8 T cells; donor D4246; 7552-infected CEM cells: > 100 µg/mL
- PD-1 EC50; CD8 T cells; donor D4246; THRO-infected CEM cells: > 100 µg/mL
- PD-1 EC50; CD8 T cells; donor D4246; uninfected CEM cells: > 100 µg/mL
- PD-1 EC50; CD8 T cells; donor D4279; 7552-infected CEM cells: > 100 µg/mL
- PD-1 EC50; CD8 T cells; donor D4279; THRO-infected CEM cells: > 100 µg/mL
- PD-1 EC50; CD8 T cells; donor D4279; uninfected CEM cells: > 100 µg/mL
- PD-1 Δ Emax; CD4 T cells; donor D1597; 7552-infected CEM cells: 0%
- PD-1 Δ Emax; CD4 T cells; donor D1597; THRO-infected CEM cells: 1%
- PD-1 Δ Emax; CD4 T cells; donor D1597; uninfected CEM cells: 0%
- PD-1 Δ Emax; CD4 T cells; donor D2256; 7552-infected CEM cells: -2%
- PD-1 Δ Emax; CD4 T cells; donor D2256; THRO-infected CEM cells: 1%
- PD-1 Δ Emax; CD4 T cells; donor D2256; uninfected CEM cells: 3%
- PD-1 Δ Emax; CD4 T cells; donor D4246; 7552-infected CEM cells: 2%
- PD-1 Δ Emax; CD4 T cells; donor D4246; THRO-infected CEM cells: 0%
- PD-1 Δ Emax; CD4 T cells; donor D4246; uninfected CEM cells: 0%
- PD-1 Δ Emax; CD4 T cells; donor D4279; 7552-infected CEM cells: 1%
- PD-1 Δ Emax; CD4 T cells; donor D4279; THRO-infected CEM cells: -2%
- PD-1 Δ Emax; CD4 T cells; donor D4279; uninfected CEM cells: -1%
- PD-1 Δ Emax; CD8 T cells; donor D1597; 7552-infected CEM cells: 0%
- PD-1 Δ Emax; CD8 T cells; donor D1597; THRO-infected CEM cells: 0%
- PD-1 Δ Emax; CD8 T cells; donor D1597; uninfected CEM cells: 0%
- PD-1 Δ Emax; CD8 T cells; donor D2256; 7552-infected CEM cells: 0%
- PD-1 Δ Emax; CD8 T cells; donor D2256; THRO-infected CEM cells: -1%
- PD-1 Δ Emax; CD8 T cells; donor D2256; uninfected CEM cells: 0%
- PD-1 Δ Emax; CD8 T cells; donor D4246; 7552-infected CEM cells: 0%
- PD-1 Δ Emax; CD8 T cells; donor D4246; THRO-infected CEM cells: 0%
- PD-1 Δ Emax; CD8 T cells; donor D4246; uninfected CEM cells: -1%
- PD-1 Δ Emax; CD8 T cells; donor D4279; 7552-infected CEM cells: 0%
- PD-1 Δ Emax; CD8 T cells; donor D4279; THRO-infected CEM cells: 0%
- PD-1 Δ Emax; CD8 T cells; donor D4279; uninfected CEM cells: 0%
